According to PMC7083622:

Legend:
[1] = target: T1, Zscan4(ZnF) (Mus musculus, UniProt Q80VJ6 369-506); assay: EMSA
T1 sequence: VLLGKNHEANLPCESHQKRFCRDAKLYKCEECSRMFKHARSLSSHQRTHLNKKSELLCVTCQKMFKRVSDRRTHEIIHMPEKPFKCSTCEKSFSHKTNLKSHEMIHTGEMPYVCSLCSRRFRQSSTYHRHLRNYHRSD

[2] = target: T1, Zscan4(ZnF); assay: EMSA; remark: listed apart in the source

| Binder | Kd [1] [µM] | binding result [2] |
| --- | --- | --- |
| (TG)n oligo (dsDNA) DNA 1: TGTGTGCATCTGTGTGCATCAT DNA 2: ATGATGCACACAGATGCACACA | ~500 | – |
| (GC)n oligo (dsDNA) DNA 1: TCGCGCGTCGCGCGTCGCGCGC DNA 2: GCGCGCGACGCGCGACGCGCGA | – | no binding |
